Test results reported in the supplement of paper PMC12764529.
± gives the half width of the 95% confidence interval.

Key:
[1] = folding stability dG unfold from trypsin proteolysis; higher = more stable
In short: (§1)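 Unfolding free energy was derived, per protease or combined, by relating Bayesian-fitted K50 values from sequencing counts to a sequence-predicted unfolded-state K50 and a shared folded-state K50. The underlying digests exposed cysteine-free mini-proteins under 80 residues, in a PA-tagged cDNA display construct, to trypsin and chymotrypsin at 11 threefold-diluted concentrations and to a no-protease condition. A filter kept only designs with AlphaFold2 dimer inter-PAE above 15.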

[2] = folding stability dG unfold from chymotrypsin proteolysis; higher = more stable
In short: as §1

[3] = folding stability dG unfold (combined trypsin and chymotrypsin); higher = more stable
In short: as §1

Row | Sequence | folding stability dG unfold [1] | folding stability dG unfold [2] | folding stability dG unfold [3]
1 | ARELPVEEIREAVREFLRKHGFRVVSEEVVELPDGSVLVFVEAEPEDKSTRYRLVITRPVDGSVRLVIEPVS [r1_460_TrMRF] | 2.66 ± 0.044 kcal/mol | 3.588 ± 0.011 kcal/mol | 3.283 ± 0.028 kcal/mol
2 | SAGMEITVPGPFLSQEVFDLPDRPYLVLPTPEGIAVIDLVTGEAVFYPFGTTEPIVVPVPPGEELDLLSAGG [r19_138_TrMRF] | 1.73 ± 0.091 kcal/mol | 1.97 ± 0.042 kcal/mol | 1.83 ± 0.088 kcal/mol
3 | SMTITIERPVPPELTDRPLSLELPLPNGSTVSVKVETSPTTATVTITTNDPSLEAEVKARVEELLARLLASA [r9_790_JUSTAS] | 2.56 ± 0.094 kcal/mol | 2.058 ± 0.02 kcal/mol | 2.27 ± 0.1 kcal/mol
4 | KKVKIEIEVEKVEDGYYVVRIKVKFEETEETIELELVFPKSLEEVLEKIKELLPEGQITEVEIEVYPLPEPS [r1_399_TrROS_Hall] | 3.89 ± 0.23 kcal/mol | 3.13 ± 0.25 kcal/mol | 3.72 ± 0.67 kcal/mol
5 | SAGGPNFTIKIEIEEIPNGVRVHKMTMELPDGHAWLMVMLYSPDPGKMFMIMVPVDPNGGIEDINIMPSAGG [r13_323_TrROS] | 2.52 ± 0.077 kcal/mol | 4.12 ± 0.074 kcal/mol | 3.92 ± 0.19 kcal/mol
6 | MITPEEAIELAKEKAKELLEKAGPGTPSVVVEIKAEDGRVVKVEVDPVKKVINITVYDKGGKKVAEKIIEES [r1_370_JUSTAS] | 2.06 ± 0.1 kcal/mol | 2.67 ± 0.099 kcal/mol | 2.38 ± 0.11 kcal/mol
7 | SAGGAEEARKAGRPVLLTVTVTAPGSGKVSTLPLLVPADRPVDVEALVAALFPADWAVTVSVSPVGGSAGGS [r8_127_JUSTAS] | 1.32 ± 0.028 kcal/mol | 1.37 ± 0.051 kcal/mol | 1.27 ± 0.11 kcal/mol
8 | SAGGSEEIKKLLASGQLDEVIALLKKKGYENVTVTPDPRKPVVTINVTKTDPKTGKKKTTTITIPTGLSAGG [r13_359_JUSTAS] | 3.62 ± 0.1 kcal/mol | 4.03 ± 0.052 kcal/mol | 3.92 ± 0.086 kcal/mol
9 | SAGGSAGGSAGGPKVIEITNKDGSTFRLVEVDGELYLYNEKTGKVVKLPPGAKITIKKPSAGGSAGGSAGGS [r10_637_TrROS_Hall] | 1.39 ± 0.033 kcal/mol | 2.65 ± 0.031 kcal/mol | 2.34 ± 0.059 kcal/mol
10 | SAGGSAGGSAGPLSTVTETTTTVPLPNGEVLTVTTYTYPDLGVTTVTTTYPDGTVTTTTIPVSAGGSAGGSA [r18_88_JUSTAS] | 2.3 ± 0.077 kcal/mol | 2.544 ± 0.011 kcal/mol | 2.47 ± 0.041 kcal/mol
11 | SAGGSAGGMKYLDVVLHPDTGATYSSLEEIKASSSGPFQIKTGDGKWIYLPVEELSSLPTPLASSAGGSAGG [r6_685_JUSTAS] | 0.0571 ± 0.039 kcal/mol | 0.331 ± 0.048 kcal/mol | 0.247 ± 0.065 kcal/mol
12 | SAGGSAGGSAGEKDLPVIEVEFPFPSSFPLPLIKKFAEPFGVKKVEFFEDGTVKVLYVLDSAGGSAGGSAGG [r11_961_TrMRF] | 0.416 ± 0.1 kcal/mol | 0.984 ± 0.14 kcal/mol | 0.806 ± 0.13 kcal/mol
13 | SAGGSAGGSAGLTFTLPDGTKITIETLEDGSVKIKIETLTPDGKPLEAEFVIPGSHPDEDSAGGSAGGSAGG [r17_471_TrMRF] | 3.2 ± 0.15 kcal/mol | 3.76 ± 0.14 kcal/mol | 3.58 ± 0.13 kcal/mol
14 | SAGGSAGGSAMKIKIEVVKNKNGYYYLKVEIEVNGKKIEITIKVPKNEKVSIEELLKKILKKSAGGSAGGSA [r18_111_TrROS_Hall] | 2.78 ± 0.12 kcal/mol | 4.55 ± 0.12 kcal/mol | 4.07 ± 0.16 kcal/mol
15 | SAGGSAGGSAGGMKIIKLEDDYYLIPFDSPEQLKAYTDIFEKLGLPVVVLPDGRLLVKGSAGGSAGGSAGGS [r10_1027_TrMRF] | 2.39 ± 0.053 kcal/mol | 2.52 ± 0.026 kcal/mol | 2.49 ± 0.054 kcal/mol
16 | SAGGSAGGSAGGMSFPVSSVEYRKDPNSDTPLVFITLPDGTVIIERLDTGTSSVVPVSQLSAGGSAGGSAGG [r11_922_JUSTAS] | 1.12 ± 0.037 kcal/mol | 1.3 ± 0.15 kcal/mol | 1.21 ± 0.067 kcal/mol
17 | SAGKIEIEVNEDGYKVRIKVEIEGKTYEFEIKVEGLSVEEIVKKALEELKKLFPNKKIKVEVEILPKKESAG [r5_180_TrROS_Hall] | 4.14 ± 0.21 kcal/mol | 4.81 ± 0.3 kcal/mol | 4.9 ± 0.54 kcal/mol
18 | SAGGSAGGSAMPKTTVYTIPYESDEEAEARIEEIKAEARARNPEAKVTVTPAGESVNVTIVGSAGGSAGGSA [r18_469_JUSTAS] | -0.7 ± 0.34 kcal/mol | -0.116 ± 0.19 kcal/mol | -0.376 ± 0.2 kcal/mol
19 | SAGGSAGGSAGGDSMSYDPKLVEEPVVEVFDGPVLVRVTEVTLPNGKKLTTTEELPPGLESAGGSAGGSAGG [r7_846_JUSTAS] | -0.436 ± 0.17 kcal/mol | 0.796 ± 0.05 kcal/mol | 0.546 ± 0.09 kcal/mol
20 | SAGGSASLEEVASLPASALAAAAGLTALSVEVTREPDGTVTVTIETRPPDGPVVTVTYTFPVDPAASAGGSA [r15_805_JUSTAS] | 0.848 ± 0.2 kcal/mol | 2.6 ± 0.098 kcal/mol | 2.06 ± 0.39 kcal/mol
21 | SAGGSAGGSGDGDYKNDPNGEQERKPKPPPVPPILVFKVELDIDANGNLDLSPDLGWFPPDAISAGGSAGGS [r12_1027_TrROS] | 1.55 ± 0.13 kcal/mol | 1.03 ± 0.093 kcal/mol | 1.42 ± 0.14 kcal/mol

Row | Sequence | folding stability dG unfold [1] | folding stability dG unfold [2] | folding stability dG unfold [3]
22 | SAGGSAGGWIEINILVPLKPGQTPSELADEIAQEFQNQHGWEIKIDDVYPTDNYVWHKIEITPPSAGGSAGG [r6_639_TrROS] | 0.864 ± 0.031 kcal/mol | 1.49 ± 0.055 kcal/mol | 1.29 ± 0.083 kcal/mol
23 | SKKVKEITIEGAPPGAKVTITVEEKGDKLIVRVEVERNGKTETFEVEMTLDELKALLDAGYTIRITEVIPSA [r9_1021_TrROS_Hall] | 2.04 ± 0.15 kcal/mol | 2.12 ± 0.086 kcal/mol | 1.99 ± 0.35 kcal/mol
24 | SAGGAKIKFDIEPTNNTIRVKIEIWLPGGPVEIVEEEPVRVDPNGGIWISFRIRYPDGKPQEFQIPISAGGS [r8_449_TrROS] | 2.62 ± 0.057 kcal/mol | 3.08 ± 0.07 kcal/mol | 2.88 ± 0.14 kcal/mol
25 | SKTIIIEVKEEKLEEIAEELAKKLEEETGYKIKKVEIILPDGTVVRIEVDAKTKKIKIEVYKLDKNGKLLSA [r9_173_TrROS_Hall] | 1.15 ± 0.037 kcal/mol | 2.24 ± 0.096 kcal/mol | 1.97 ± 0.1 kcal/mol
26 | SAGKEVIVITVEELEKLLKALKPGEKVKIVVINKDGKKVTFTAEVKDGKVEIKEAEKDIKPGDKIFIEKSAG [r5_85_TrROS_Hall] | 1.85 ± 0.17 kcal/mol | 3.49 ± 0.28 kcal/mol | 3.09 ± 0.46 kcal/mol
27 | SKPILKIKINIPVLKDKNGKEIIPSPNDVLAALEKLGIPVDKAEITKIGKNTIPILILVDLVDGKAYVKDSA [r9_225_TrMRF] | 1.51 ± 0.059 kcal/mol | 0.539 ± 0.054 kcal/mol | 1.13 ± 0.1 kcal/mol
28 | SAGGRVDVRVERVGEGAVITLLADVEDPEPLVELLEASGLPVELARIEPVRDPVTGRLLVRAVFRVPSAGGS [r16_699_TrMRF] | 1.12 ± 0.069 kcal/mol | 1.14 ± 0.082 kcal/mol | 1.13 ± 0.095 kcal/mol
29 | SAGGSAGGSAKIEVEVTPLPGNKVLKIIKFENGEYIIEVFYFDPETGKIYSESEIISEEELLSAGGSAGGSA [r18_325_TrMRF] | 1.3 ± 0.039 kcal/mol | 2.36 ± 0.044 kcal/mol | 2.05 ± 0.13 kcal/mol
30 | SAGGSAGGSAMIVTEEGNTITITTLTNLTFPTTGATSTATTTTTITLPPTPLFPVPRTDNSLSAGGSAGGSA [r18_501_JUSTAS] | -0.21 ± 0.11 kcal/mol | 0.819 ± 0.12 kcal/mol | 0.44 ± 0.24 kcal/mol
31 | SAGGMTITVPVDEEEAEEFIREATGELTALAEKYPDVPIEIEFPLKSGRVIRLRVYPKSKKVEIEVYDSAGG [r13_216_TrMRF] | 2.48 ± 0.057 kcal/mol | 2.559 ± 0.024 kcal/mol | 2.57 ± 0.045 kcal/mol
32 | SAGGSAGGSMKITKIEVEENEDGTLTVRLELEFVDPETKETYRVELEITVSKEELEKLLEALKSAGGSAGGS [r12_691_TrROS_Hall] | 3.03 ± 0.12 kcal/mol | 4.09 ± 0.21 kcal/mol | 3.9 ± 0.23 kcal/mol
33 | SAGGSAGGIEITEISRSEELLKLDVPEDTLVLKVKHPDGKEIEVTFPANIPIEEAKEKAKEFVESAGGSAGG [r6_986_TrMRF] | -0.248 ± 0.079 kcal/mol | -0.176 ± 0.15 kcal/mol | -0.188 ± 0.18 kcal/mol
34 | SVYNPNNPNIPTKLTVTIPVPEEVVAAGDTAAAEAAAEATAAALAPEGWRVTSVSFPRETGTMTVTLTRPSA [r9_75_JUSTAS] | 1.32 ± 0.022 kcal/mol | 1.16 ± 0.11 kcal/mol | 1.33 ± 0.063 kcal/mol
35 | SAGGSAGGSAGPIVYPYGKYLVVYNPETGALVVVELDPDGKVKKVVVFGKDGPLVELDDASAGGSAGGSAGG [r17_385_TrMRF] | 2.76 ± 0.067 kcal/mol | 3.369 ± 0.022 kcal/mol | 3.14 ± 0.047 kcal/mol
36 | SAGGSAGGKLENLPENVTEVRIEKNENGEYTIYVRNKETNEYVKLKVEKKDGEWKIVEKEVFPKSAGGSAGG [r6_937_TrROS_Hall] | 2.09 ± 0.12 kcal/mol | 3.02 ± 0.047 kcal/mol | 2.74 ± 0.26 kcal/mol
37 | SAGGSAGGSAGGSNIEVHYFPDGAIVMTIREPNGWYIKIVARIPPDGNIKITEIELFPMSAGGSAGGSAGGS [r4_246_TrROS] | 3.24 ± 0.11 kcal/mol | 3.78 ± 0.11 kcal/mol | 3.49 ± 0.2 kcal/mol
38 | SAMVYPYLLRVYLPGSGEVVYFPASSLEEAVELLEEVAALPNVNSVDLYTPDGTKVHFLIDVPPEAFEESAG [r14_747_TrMRF] | 2.67 ± 0.12 kcal/mol | 2.891 ± 0.022 kcal/mol | 2.77 ± 0.066 kcal/mol
39 | SAGGSAGGSAGGGMARAEKLPSSWTLVSVTPRDGSTVVTYKLPDGSTLTLDLRPDSYDGASAGGSAGGSAGG [r7_775_JUSTAS] | 0.436 ± 0.058 kcal/mol | 1.46 ± 0.15 kcal/mol | 1.1 ± 0.075 kcal/mol
40 | SAGGSAGGSAGGMIVTLPKTGEVLLVPEEEIEAFLAALPESFPKEDVEVYEYSPEEEPLSAGGSAGGSAGGS [r10_13_JUSTAS] | 0.566 ± 0.044 kcal/mol | 0.0515 ± 0.17 kcal/mol | 0.253 ± 0.13 kcal/mol
41 | SAGKKIELTFRNPDGWMIRITIEKKPNGGFQITEITWEPYPNGRMSAKIYVPNGKTIEVNSWDDILDALSAG [r5_618_TrROS] | 1.09 ± 0.038 kcal/mol | 2.57 ± 0.075 kcal/mol | 2.12 ± 0.12 kcal/mol
42 | SMEIVFKGKNYYVPVKIDLDNPKITIETYPDKRNKVFKPLSKETAEKIAKAVEIEVAEKIAKAIAEGKPPSA [r9_368_TrMRF] | 0.0537 ± 0.39 kcal/mol | -0.5 ± 0.66 kcal/mol | -0.246 ± 0.54 kcal/mol
